Experiment: label from the status in PepcDB records
With “MERAVPLAVPLGQTEVFQALQRLHMTIFSQSVSPCGKFLAAGNNYGQIAIFSLSSALSSEAKEESKKPVVTFQAHDGPVYSMVSTDRHLLSAGDGEVKAWLWAEMLKKGCKELWRRQPPYRTSLEVPEINALLLVPKENSLILAGGDCQLHTMDLETGTFTRVLRGHTDYIHCLALRERSPEVLSGGEDGAVRLWDLRTAKEVQTIEVYKHEECSRPHNGRWIGCLATDSDWMVCGGGPALTLWHLRSSTPTTIFPIRAPQKHVTFYQDLILSAGQGRCVNQWQLSGELKAQVPGSSPGLLSLSLNQQPAAPECKVLTAAGNSCRVDVFTNLGYRAFSLSF” the protein production was “failed”.
For “MERAVVQRARPLARRPLVTLLTAAALAASGLTALTSAARAADADLARNGGFESALDGWTCTAGTTVTSPVHGGTSALKATPAGADNARCSQTVSVKPDSPYTLSGYVRGTYVYLGASGTGTTDVSTWAQSAPDWQQLTTTFRTGPSTTRVTIYTHGWYGTGAYHADDISLTGPGGETQQPPAVPGGLKTGSVTSSAVALSWSPVPGATGYAVYRDGAKVSTVTGTSTTVTGLTPSTAYSFQVTAVNDAGESARSATVTATTAQRPDDGGGSSDLPAHALVGYLHASFANGSGYTRMADVPDSWDVIDLAFGEPTSVTSGDIRFERCPVAECPNVESDAEFKAAIKAKQAAGKKVLISIGGQNGQVQLTSTAARDKFVSSVSAIIDEYGLDGLDIDFEGHSLSLNADDTDFKNPKTPVIVNLVSAVKTLKAKYGDGFVLTMAPETFFVQLGYQYYGTGKWGGQDPRAGAYLPVIHALRDDLTLLHVQDYNSGSIMGLDNQYHSMGGADFHIAMTDMLLTGFPVAGDANNVFPPLRPDQVAIGMPASTQAGNGHVSPAEVTKALNCLTKKTDCGSYATHGTWPDLRGLMTWSINWDRYSNWEFQKNFDAYFG”, the protein production was “failed”.
For “MERIEAGMSVMTLKKQTYRVIAVINQGQELLVRAHEPETADIEIIPVTTVVQVTEQNSTGDAAVALDTVTVVGERYVDDIVATLTTLRVGMAVLLQRESGNQYDDNAISVWTLQHAKLGYIARYQNQPYATLMDQGQRLYGIVTVLDQQKQHLELMLWRTTAVPSPIEALQIRQRLAKPRTNLGAVPTHSLQTPLGTIVMMCNGHPIKYQQVPLSPWLTPADELHVTKRYLLTPDWSQVPPDSLITCQVTAKADVVQRWQNEHISAAVLTNASSFYVVGISAQTKTGLNDNLVDDAAQPAVIYRVGQVSAHMQAGFMVSWAPFGDPRVQPALKLALHFSSQPLVPYHPVTPSRTNATFTQQELAALLVSALPNYQGGQRLEPSVTTITVEKLRQTLGDQTYHALANYQRHVQLVAGSTEGVNETLLQALIHAVTYHELTTMHYYQPTVGMVDQVIYPIQLFSTTTKDEDDAQLVGCLALYNYETFEIQQVPLTAIARIAIIADPEHPQTTPETESPDWLRIFLHGWNDDFLEHHHHHH”, the protein production was “not failed”.
For “MERIETIPTDKEHLSQDEVIRLASTPCSAPALKRAFLFSCLTALRKSDIKKLTWEEIQPYGSDGVMYVTTRMQKTKDIVHNPISEEALELIGYSPDKRGKVFPDFKDSMTQAPLKNWLKDAGITKHISYHCSRHSFACLQLDAGTSIAVVQRYLGHKNVATTEVYAKISDAQKRASVGLEHHHHHH”, the protein production was “not failed”.
For “MERKLGISLYPEHSTKEKDMAYISAAARHGFSRIFTCLLSVNRPKEEIVAEFKEIINHAKDNNMEVILDVAPAVFDQLGISYSDLSFFAELGADGIRLDVGFDGLTEAKMTNNPYGLKIELNVSNDIAYLENILSHQANKSALIGCHNFYPQKFTGLPYDYFIRCSERFKKHGIRSAAFITSHVANIGPWDINDGLCTLEEHRNLPIEVQAKHLWATGLIDDVIIGNAYASEEELEKLGNLNRYMLQLKVHFVDEATEVEKRATLQELHVRRGDITEYMVRSTEVRKKYKDYDFPVRESVLQERGQVVIGNNSFGKYKGELQIILKEMPIDERKNIVGTIAEEELFLLDYVGAWTQFTCVE”, the protein production was “not failed”.
With “MERKNNQRSDEDEERKEQSEEERVERKEEAPRKRQKQDDVSTGKETLSKKRKIIDNDGDNVPTRSNKQSRVDDADNVDGPPVGDNDDHPTAQRKSKRGTIPSIHTQPPFTAEKKKHPILYPFAKVDASRVEKLAEGKKSRKCK” the protein production was “failed”.
For “MERLKLYFSYFKNKILKKYESKKAQSVIDTEEIKEEIWEADFSKKEKARFIEETGDGYQSLFEENLDGKHSYSLELKRKHLYAWALNPLFRYKDFVLDAEIELPVFTDNFFPEENTSAGYCAAGFVFRHISDKAFYSLLISDKGWIRLEAVVNSTPMPILGWTKPLTDIDSSKFKIKLICAGTSITVLVNNTWLGKFESDIVQAAGKIGFAGQNWETYPKVKFYLNEFKIISQPLLVENTDSAANNPDAISPEAYINLASTYYAMGQYVAAIYQIKQAWKLREPGIQDHILAGRIYFAQHLNEEAEKEFLHALDIEHDNYEIMAELAGLYYQSGNMKKLGDILKDIPNDEIEKSVLLCSLKGHFLNSQGKHEKSAAFYAKAFELKPDQGLLKYNEANELNLAGKTAEAVEAYTEAGKLFLASEEYNEMANVINALERIAPEDERTWALSGKFYYAVDNKWEAKLNFKKLCDAKTSDSTIWYLYGLLIHDEKPEEAVKFFKKACKLGPEHGLYHFRLAEALYLIGEDCSVPLSEAEALEPNNGWIFNLKALCAIDEDAFFDAQIEIEKARKMLPDEIVILENYVEIMRLQGRLKECAPLFDIEAGTADLAAERNRAEAFHIYANALFFDEQYDEADIWYQKALKLKPVDPVLLTDKAENSIKIGYLNDADGLLVKAMDIEPTERIYRLISLLAVKKGDHARAEVSLRQAIEEFGESEELLFDLTNLYIQTNRKEKAKETIKLLTNCEDQERLKELKALLKK”, the protein production was “failed”.
With “MERNSWAEQWDSNQQSSGKTTHGGEGGGASSKYKEKVGAGLGKTKAAASSGLKKVKIGTSLGLNWVKDKYNKTTTKN” the protein production was “failed”.
In the case of “MERRLCAILAADMAGYSRLMERNETDVLNRQKLYRRELIDPAIAQAGGQIVKTTGDGMLARFDTAQAALRCALEIQQAMQQREEDTPRKERIQYRIGINIGDIVLEDGDIFGDAVNVAARLEAISEPGAICVSDIVHQITQDRVSEPFTDLGLQKVKNITRPIRVWQWVPDADRDQSHDPQPSHVQH”, the protein production was “not failed”.
In the case of “MERSAFMELDAGSRLVMHLREWPALLVSSTGWTEFEQLTLDGHNLPSLVCVITGSVDLGVCLHMSSSGLDLPMKVVDMFGCCLPVCAVNFKCLHELVKHEENGLVFEDSEELAALQMLFSNFPDPAGKLNQFWKDLRESQQLRWDESWVQTVLPLVMDIQLLGQRLKPRDPCCPSRSFFSESQGKPF”, the protein production was “failed”.
For “MESGHRFDAQTLHSFIQAVFRQMGSEEQEAKLVADHLIAANLAGHDSHGIGMIPSYVRSWSQGHLQINHHAKTVKEAGAAVTLDGDRAFGQVAAHEAMALGIEKAHQHGIAAVALHNSHHIGRIGYWAEQCAAAGFVSIHFVSVVGIPMVAPFHGRDSRFGTNPFCVVFPRKDNFPLLLDYATSAIAFGKTRVAWHKGVPVPPGCLIDVNGVPTTNPAVMQESPLGSLLTFAEHKGYALAAMCEILGGALSGGKTTHQETLQTSPDAILNCMTTIIINPELFGAPDCNAQTEAFAEWVKASPHDDDKPILLPGEWEVNTRRERQKQGIPLDAGSWQAICDAARQIGMPEETLQAFCQQLAS”, the protein production was “not failed”.
For “MESIQSSLKHMTGNRSFEKQFTQLKEAVFRSPHVQLFLEEHPSLSPITLEQGLSKLYEYQKEQSHCAHCPGLQKCPNLMKGYQPTLYVERDSLELSYSPCPLKEEEEREKKKRSLIRSLYIPKEILEAKFDDVESEPGRSIASHRALEFALSAKPGEDGMGLYLYGKFGVGKTFLMGAIANELKDRGIDSTIVYVPDFFRELKQSIGDGTFQQKLDFVKNAQVLIFDDIGAETMTSWVRDDVLGVILQYRIMEKLPTLFTSNYDYDELEEHLAYNDKSGTELLKAKRVMERIRHYTVSVMVQGQNRREHQSLEHHHHHH”, the protein production was “not failed”.
In the case of “MESLPFVAAQPTIVPQLQQQVTGLTSSLNSQEKKELTHKLESIFNNTQVQIAVLIVSTTKDETIEQYATRVFDNWRLGDAKRNDGILIVVAWSDRTVRIQVGYGLEEKVTDALAGDIIRSNMIPAFKQQKLAKGLELAIIALNNQLTSQHQYPANPSESESTSSTDHYYFAIFWVFAVMFFPFWFFHQGSNFCRACKSGVCISAIHLLDLFLFSDKTFSIAVFSFFFTFTIFMVFTCLCVLQKRASGRSYHSDNSGSAGGSSGGASGRWLEHHHHHH”, the protein production was “failed”.
With “MESLRSERNQYRILVDITNSVLAHLDMDGLISEVSKEIHRFFGLNHISLMLCRTSSQNSHEGILYSSRYQTGKSVIRQQRKFSSANNKAEEIIHQNKPVLIDINKEDQDDVLIKRLVKQNMQTALLLPLAFNRKPLGLLILAHEISSVFTEETCQLLQQIAARIGIAIENAAAYEEITHLKDS” the protein production was “not failed”.
In the case of “MESLTQYIPDEFSMLRFGKKFAEILLKLHTEKAIMVYLNGDLGAGKTTLTRGMLQGIGHQGNVKSPTYTLVEEYNIAGKMIYHFDLYRLADPEELEFMGIRDYFNTDSICLIEWSEKGQGILPEADILVNIDYYDDARNIELIAQTNLGKNIISAFSN”, the protein production was “not failed”.
For “MESMVAPGEVLMSQAIQPAHADSRGELSAGQLLKWMDTTACLAAEKHAGISCVTASMDDILFEDTARIGQIITIRAKVTRAFSTSMEISIKVIVQDKFTGIQKLLCVAFSTFVAKPVGKEKVHLKPVLLQTEQEQVEHNLASERRKVRLQHENTFNNIMKESSRFSDSICNEEEGTATTMGTSVQSIELVLPPHANHHGNTFGGQIMAWMETVATISASRLCHGHPFLKSVDMFKFRGPSTVGDRLVFSAIVNNTFQNSVEVGVRVEAFDCQEWAEGQGRHINSAFLIYNAVDDQEKLITFPRIQPISKDDFRRYQGAIARRRIRLGRKYVISHKKEVPLSAQWDISKKGSLSNTNVEALKNLASKSGWEITTTLEKIKIYTLEEQDAISVKVEKLVGSPAHIAYHLLSDLTKRPLWDPHYISCEVIDQVSEDDQIYYITCSVVNGDKPKDFVVLVSRRKPLKDNNTYTVALRSVVLPSVPSSPQYIRSEVICAGFLIQAVDSNSCTVTYLNQMSDSILPYFAGNIGGWSKSIEEAAASCIKFIENATPDGLKSVL”, the protein production was “failed”.
In the case of “MESPPMFNSVEDECRYWKERSKQYHKEWTDVKQEYDEFVEQSREMEIEMDATLDQKQSIIKDLTAKLTMFERENESLKLKLESHGIDMSNMEKQLETVKKDRDTMKVYLRQLEQKNDDLERAHRILNESIENFEKMLDQAYEKNALLELEVDEKGLLQEKLQRLMDETRDLKQELNVKSRFTPVVNGTSVPTANDTNTVNSSMNSSASLPNGIVANGELVKHDNAVATRATSVSVNALNGSLVNRNEYNQQHSLKSDGDETEDVPREWSANAAATPLLPAIHTSGAGRTALLLAGCRVVWILQFSVIHKPQIRNPIT”, the protein production was “failed”.
For “MESSPSGSEPPQKVVSKLQKVGWRATMIFNLGFAAYIFAIKREKDIDADEKKKVKKGSEARHKGVKKGAVNTEIEKKGAEETDKAKEAETAIPEKEETKLIPELDPLFEFTDATDQSMFQTVATEHVKVARKPIPEDEQKELFKWILEEKRKIEPKDRKEKKQIDEEKAILKQFIRAERIPKLLPDDSVDSSLRDWDKFFSK”, the protein production was “failed”.
In the case of “MESTLSQLLPEALATRRRALAQMITGLHLAEHVHLSKVAGRIAGTAQLESKTRHLRRFLGNENVDPERFYSPVRDRLIEWAAQGAETQGSGPIRLLVDTVELSGERQVLMAGIAYRRRALPICWETYRREGVTNAEQQISLLKALVGRFPDEAEVVVVGDGAFHSTDLMDFIEDQGWHFCLRLHADTYIRSFKDSSKGFPKEGTWKQLRDLVPEEGERRYLQDVIVTKDNEYGPVGLALCQAEDEDDP”, the protein production was “failed”.
For “MESVSCSAAAVRTGDMESQRDLSLVPERLQRREQERQLEVERRKQKRQNQEVEKENSHFFVATFARERAAVEELLERAESVERLEEAASRLQGLQKLINDSVFFLAAYDLRQGQEALARLQAALAERRRGLQPKKRFAFKTRGKDAASSTKVDAAPGIPPAVESIQDSPLPKKAEGDLGPSWVCGFSNLESQVLEKRASELHQRDVLLTELSNCTVRLYGNPNTLRLTKAHSCKLLCGPVSTSVFLEDCSDCVLAVACQQLRIHSTKDTRIFLQVTSRAIVEDCSGIQFAPYTWSYPEIDKDFESSGLDRSKNNWNDVDDFNWLARDMASPNWSILPEEERNIQWD”, the protein production was “not failed”.

Source: a protein production outcome set (Wang et al. 2014)
